The source of these data is paper PMC8615271, “Functional Interplay between P5 and PDI/ERp72 to Drive Protein Folding” (Biology, 2021).

Where a chain is given by its changes, count along the chain named.

By stoichiometry N is commonly meant the number of molecules, sites or subunits per partner or assembly.

T1: ERp72 (human, UniProt P13667 25-645)
T1 construct: human ERp72, Glu25-Leu645, cloned into pET15b; source: E. coli BL21 (DE3), purified (Ni-NTA, thrombin digestion, RESOURCE Q, Superdex 200)
T1 sequence (looked up): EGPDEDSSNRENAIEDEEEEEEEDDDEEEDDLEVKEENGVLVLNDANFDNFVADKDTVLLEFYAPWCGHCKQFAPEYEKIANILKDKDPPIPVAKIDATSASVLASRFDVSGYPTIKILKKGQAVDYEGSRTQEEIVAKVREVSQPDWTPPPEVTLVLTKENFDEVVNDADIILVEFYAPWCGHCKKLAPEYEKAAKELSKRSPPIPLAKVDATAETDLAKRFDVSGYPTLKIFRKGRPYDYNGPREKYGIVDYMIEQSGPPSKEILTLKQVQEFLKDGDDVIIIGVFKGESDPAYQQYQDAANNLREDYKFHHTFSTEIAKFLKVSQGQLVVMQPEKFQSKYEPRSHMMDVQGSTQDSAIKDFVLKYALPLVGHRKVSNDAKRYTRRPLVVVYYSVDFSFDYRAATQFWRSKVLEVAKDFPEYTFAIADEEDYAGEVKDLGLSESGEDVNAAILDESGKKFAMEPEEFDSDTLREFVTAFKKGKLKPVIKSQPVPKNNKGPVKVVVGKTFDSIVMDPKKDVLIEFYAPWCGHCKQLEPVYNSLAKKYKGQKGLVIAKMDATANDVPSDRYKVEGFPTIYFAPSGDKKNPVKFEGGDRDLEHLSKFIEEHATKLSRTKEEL

T2: IRE1α LD (human, UniProt O75460 24-446)
T2 construct: human IRE1 (IRE1α LD), Ser24-Thr446, cloned into pGEX6p-1; It prints 'C-terminal GST', although pGEX6p-1 usually adds GST at the N-terminus; both tags were removed in any case; also called ER stress sensor IRE1; source: E. coli BL21 (DE3), purified (Glutathione Sepharose 4B, PreScission digestion, Ni-NTA, RESOURCE Q, Superdex 200); not shown: GST, C-terminal, cleaved
T2 sequence (looked up): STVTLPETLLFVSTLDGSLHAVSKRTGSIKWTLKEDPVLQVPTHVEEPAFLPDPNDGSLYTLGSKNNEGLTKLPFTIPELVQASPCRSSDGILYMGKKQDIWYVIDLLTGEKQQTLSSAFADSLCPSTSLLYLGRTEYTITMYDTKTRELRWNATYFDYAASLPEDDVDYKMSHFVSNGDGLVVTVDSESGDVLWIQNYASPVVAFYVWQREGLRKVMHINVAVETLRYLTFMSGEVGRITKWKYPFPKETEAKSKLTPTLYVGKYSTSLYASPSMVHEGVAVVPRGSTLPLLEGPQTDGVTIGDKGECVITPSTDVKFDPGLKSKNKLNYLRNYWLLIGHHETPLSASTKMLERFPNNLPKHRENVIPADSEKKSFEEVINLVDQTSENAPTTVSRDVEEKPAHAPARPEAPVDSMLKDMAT

B1: P5 (reduced form) (enzyme, human, UniProt Q15084 20-440, looked up)
chain: LYSSSDDVIELTPSNFNREVIQSDSLWLVEFYAPWCGHCQRLTPEWKKAATALKDVVKVGAVDADKHHSLGGQYGVQGFPTIKIFGSNKNRPEDYQGGRTGEAIVDAALSALRQLVKDRLGGRSGGYSSGKQGRSDSSSKKDVIELTDDSFDKNVLDSEDVWMVEFYAPWCGHCKNLEPEWAAAASEVKEQTKGKVKLAAVDATVNQVLASRYGIRGFPTIKIFQKGESPVDYDGGRTRSDIVSRALDLFSDNAPPPELLEIINEDIAKRTCEEHQLCVVAVLPHILDTGAAGRNSYLEVLLKLADKYKKKMWGWLWTEAGAQSELETALGIGGFGYPAMAAINARKMKFALLKGSFSEQGINEFLRELSFGRGSTAPVGGGAFPTIVEREPWDGRDGELPVEDDIDLSDVELDDLGKDEL
notes: human P5 (PDIA6), Lys20-Leu440, cloned into pET15b; Used reduced (10 mM dithiothreitol treatment during purification); this was not measured here; also called ERp5; PDIA6; source: E. coli BL21 (DE3), purified (Ni-NTA, thrombin digestion, RESOURCE Q, Superdex 200)
B2: Catalytically-inactive P5 (Cys55/58/190/193Ala) mutant (enzyme, human, UniProt Q15084 20-440, looked up)
chain: B1 chain with C36A, C39A, C171A, C174A
notes: human P5 (PDIA6), Lys20-Leu440, with the four active-site cysteines changed to alanine; The limits are those stated for the human P5 gene in pET15b; also called mutated P5; source: E. coli BL21 (DE3), purified (Ni-NTA, thrombin digestion, RESOURCE Q, Superdex 200)
B3: ERp46 (enzyme)
chain: not shown
notes: human ERp46, Arg33-Leu432, cloned into pET15b; source: E. coli BL21 (DE3), purified (Ni-NTA, thrombin digestion, RESOURCE Q, Superdex 200)

Details in all cases: both partners purified
Test [1] has as its target T3, PDI (human, UniProt P07237 18-508).
T3 construct: human PDI (P4HB), Asp18-Leu508, cloned into pET15b; also called protein disulfide isomerase; P4HB; source: E. coli BL21 (DE3), purified (Ni-NTA, thrombin digestion, RESOURCE Q, Superdex 200)
In words: far-Western, overlay or dot blot; reduced purified prey proteins (from 40 µM stocks, 3 µL) dotted on nitrocellulose; blocked with 5% skim milk in TBST; incubated with 0.2 µM reduced P5 in 20 mM Tris-HCl pH 7.6, 150 mM NaCl, 0.05% Tween 20 at 4 °C for 3 h; bound P5 detected with anti-P5 antiserum.

Test [2] addresses T1, ERp72. The description is as above.
Another test deals with T2, IRE1α LD. Described as above.
The target of test [3] is T3, PDI. In words: ITC; 280 µM P5 Cys55/58/190/193Ala mutant in the syringe (50 mM HEPES pH 7.2, 150 mM NaCl) titrated into 40 µM PDI or ERp72 in the cell (50 mM HEPES pH 7.2); 30 °C; one set of sites model. (In ITC the heat of successive injections is recorded.)
For test [4], the target named is T1, ERp72. The description is as above.
In the test “P5 (reduced form)” the target is B1. Put plainly: far-Western, overlay or dot blot; reduced purified prey proteins (from 40 µM stocks, 3 µL) dotted on nitrocellulose; blocked with 5% skim milk in TBST; incubated with 0.2 µM reduced P5 in 20 mM Tris-HCl pH 7.6, 150 mM NaCl, 0.05% Tween 20 at 4 °C for 3 h; bound P5 detected with anti-P5 antiserum.

T3 sequence (P07237 18-508): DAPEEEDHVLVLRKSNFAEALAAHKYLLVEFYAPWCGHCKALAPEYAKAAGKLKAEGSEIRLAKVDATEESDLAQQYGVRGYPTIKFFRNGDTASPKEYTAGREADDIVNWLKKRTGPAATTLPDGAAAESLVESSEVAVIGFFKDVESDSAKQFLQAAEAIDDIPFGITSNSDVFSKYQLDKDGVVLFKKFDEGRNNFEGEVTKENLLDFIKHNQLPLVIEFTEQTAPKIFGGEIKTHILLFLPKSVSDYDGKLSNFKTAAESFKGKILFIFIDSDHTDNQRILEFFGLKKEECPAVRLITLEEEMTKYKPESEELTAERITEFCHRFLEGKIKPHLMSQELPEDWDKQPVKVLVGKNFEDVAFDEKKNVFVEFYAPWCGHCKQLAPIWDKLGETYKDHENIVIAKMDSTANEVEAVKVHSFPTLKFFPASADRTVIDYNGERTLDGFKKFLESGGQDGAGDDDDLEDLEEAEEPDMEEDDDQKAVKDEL

Regarding B1, the binding result in the test with PDI [1], in the test with ERp72 [2] and in the test with IRE1α LD was “binds” each time.
Take B2: the dH was -4.4 ± 0.2 kcal/mol with PDI [3] and -10.7 ± 0.8 kcal/mol with ERp72 [4]. Moreover, the “stoichiometry N” value in the test with PDI [3] and with ERp72 [4] was 0.1 in each case.
For B3, the binding result with P5 (reduced form) is recorded as “binds”.
